{"source": "paper PMC4269474", "about": "(Cell reports, 2014)", "proteins": {"B1": {"name": "Pyrococcus furiosus Cmr4 (natural protein)", "chain": "KAYLVGLYTLTPTHPGSGTELGVVDQPIQRERHTGFPVIWGQSLKGVLRSYLKLVEKVDEEKINKIFGPPTEKAHEQAGLISVGDAKILFFPVRSLKGVYAYVTSPLVLNRFKRDLELAGVKNFQTEIPELTDTAIASEEITVDNKVILEEFAILIQKDDKGILESVVKAIEQAFGNEMAEKIKGRIAIIPDDVFRDLVELSTEIVARIRINAETGTVETGGLWYEEYIPSDTLFYSLILVTPRAKDNDMALIKEVLGKINGKYLQIGGNETVGKGFVKVTLKEVTNNGGTHAK"}}, "biological_target": "the molecule itself", "test": "negative-stain EM single particle reconstruction", "data": [{"protein": "B1", "values": [{"measurement": "stoichiometry N", "result": 4}]}]}
